Measurements from US20260193376A1 (Novo Nordisk, published 2026).
Numbering of substitutions follows the chain as printed.

Assays:
[1] = target: T1, human plasma-derived Factor IXa (human, UniProt P00740 47-191; P00740 227-461); test: cell-based or functional assay
[2] = target: T1, human plasma-derived Factor IXa; test: cell-based or functional assay; remark: listed apart in the source
[3] = target: T2, randomly biotinylated human FIXa (human, UniProt P00740 47-191; P00740 227-461, randomly biotinylated (NHS-d-biotin)); test: BLI (Octet) in-tandem binning on biotinylated FIXa, 330 nM each; competitor (1st antibody): mAb01-2434
Protocol: (§1) Binning experiments were performed using Octet fortebio systems (HTX, Red384), based on the principle of Bio-Layer Interferometry, and equipped with streptavidin sensors (Pall Life Sciences, Menlo Park, CA), and using 8-channel mode. The binning assays were performed using a modified in-tandem setup. Briefly, (1) 370 nM randomly biotinylated human FIXa (biotinylated using NHS-d-biotin from Sigma H1759 and human FIXa obtained from Haematologic Technologies, Essex Junction, VT) was captured by streptavidin tips (dip and read biosensors Part NO:18-5019, Pall Life Sciences, Menlo Park, CA) for 5 minutes, (2) 330 nM of a first bivalent anti-FIXa antibody was then offered to the streptavidin tips, and incubated for 10 minutes until the biotinylated FIXa were fully saturated and (3) the tips were then offered to an equimolar solution of 330 nM of the first antibody and 330 nM of a second bivalent anti-FIXa antibody for 5 minutes. […] Unspecific binding were evaluated by including an unrelated human IgG4 bivalent antibody as first and second antibody control.

[4] = target: T2, randomly biotinylated human FIXa; test: BLI (Octet) in-tandem binning on biotinylated FIXa, 330 nM each; competitor (1st antibody): 224F3
Protocol: as §1

[5] = target: T2, randomly biotinylated human FIXa; test: BLI (Octet) in-tandem binning on biotinylated FIXa, 330 nM each; competitor (1st antibody): hIgG4 (control)
Protocol: as §1

[6] = target: T2, randomly biotinylated human FIXa; test: BLI (Octet) in-tandem binning on biotinylated FIXa, 330 nM each; competitor (1st antibody): mAb01-1767
Protocol: as §1

T2 sequence (P00740 47-191, chain 1 of 2): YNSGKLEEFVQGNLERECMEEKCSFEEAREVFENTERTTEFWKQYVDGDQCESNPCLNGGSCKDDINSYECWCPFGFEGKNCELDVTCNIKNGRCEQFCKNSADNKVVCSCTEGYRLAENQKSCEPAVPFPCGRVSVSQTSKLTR
T2 sequence (P00740 227-461, chain 2 of 2): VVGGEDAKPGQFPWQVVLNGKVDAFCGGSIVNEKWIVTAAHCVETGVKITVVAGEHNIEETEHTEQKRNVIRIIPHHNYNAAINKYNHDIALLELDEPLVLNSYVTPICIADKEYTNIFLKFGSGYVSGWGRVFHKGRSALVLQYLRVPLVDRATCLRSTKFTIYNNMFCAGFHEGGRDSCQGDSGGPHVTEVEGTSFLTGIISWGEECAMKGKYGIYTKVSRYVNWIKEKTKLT
T1 sequence (P00740 47-191, chain 1 of 2): as the sequence (P00740 47-191, chain 1 of 2) above
T1 sequence (P00740 227-461, chain 2 of 2): as the sequence (P00740 227-461, chain 2 of 2) above

B1: one-armed (OA) mAb11-1276 (antibody, V domains shown)
VH: EVQLVESGGGLVQPGRSLRLSCAASGFTFHDYAMHWVRQVPGKGLEWVSGISWKGDIGGYVDSVKGRFTISRDNEKNSLYLQMNSLRAEDTALYYCVKSYGSGSFYNAFDSWGQGTLVTVSS
VL: DIQMTQSPSTLSASVGDRVTITCRASQSISSWLAWYQQKPGKAPKFLIYKASRLDRGTPSRFSGSGSGTEFSLTISSLSPDDFATYYCLEYSSYIRTFGQGTKVEIK
Stimulation Index, FXa generation assay, 800 nM OA antibody [1]: 1740 fold

B2: one-armed (OA) mAb11-1278 (antibody, V domains shown)
VH: B1 VH
VL: B1 VL with S79Q, S92Q
Stimulation Index, FXa generation assay, 800 nM OA antibody [1]: 1690 fold

B3: one-armed (OA) mAb11-1279 (antibody, V domains shown)
VH: B1 VH
VL: B1 VL with S79Q, S92K
Stimulation Index, FXa generation assay, 800 nM OA antibody [1]: 1560 fold

B4: one-armed (OA) mAb11-1282 (antibody, V domains shown)
VH: B1 VH
VL: B1 VL with S79Q, Y94W
Stimulation Index, FXa generation assay, 800 nM OA antibody [1]: 1460 fold

B5: one-armed (OA) mAb11-1286 (antibody, V domains shown)
VH: B1 VH
VL: B1 VL with S76Y, S77D, S79Q, S92R
Stimulation Index, FXa generation assay, 800 nM OA antibody [1]: 1820 fold

B6: one-armed (OA) mAb11-1288 (antibody, V domains shown)
VH: B1 VH
VL: B1 VL with S60Q, S76Y, S79Q, S92N
Stimulation Index, FXa generation assay, 800 nM OA antibody [1]: 2530 fold

B7: one-armed (OA) mAb11-1344 (antibody, V domains shown)
VH: B1 VH with R19K, H30D, E75A, M83L, V97A
VL: B1 VL with V15A, R53K, S79Q
Stimulation Index, FXa generation assay, 800 nM OA antibody [1]: 4660 fold

B8: one-armed (OA) mAb11-1358 (antibody, V domains shown)
VH: B1 VH with R19K, H30D, K54R, E75A, M83L
VL: B1 VL with V15A, R53K, S79Q
Stimulation Index, FXa generation assay, 800 nM OA antibody [1]: 2830 fold

B9: one-armed (OA) mAb01-9697 (antibody, V domains shown)
VH: B1 VH with R19K, H30D, K54R, E75A, M83L
VL: B1 VL with D55E, S79Q
Stimulation Index, FXa generation assay, 3200 nM OA antibody [1]: 6540 fold

B10: one-armed (OA) mAb11-1360 (antibody, V domains shown)
VH: B1 VH with R19K, H30D, K54R, E75A, M83L
VL: B1 VL with F46L, D55E, S79Q
Stimulation Index, FXa generation assay, 800 nM OA antibody [1]: 1110 fold

B11: one-armed (OA) mAb11-1389 (antibody, V domains shown)
VH: B1 VH with R19K, V40A, E75A, V97A
VL: B1 VL with V15A, S79Q
Stimulation Index, FXa generation assay, 800 nM OA antibody [1]: 5790 fold

B12: one-armed (OA) mAb11-1495 (antibody, V domains shown)
VH: B1 VH with K54R, V61A, D62K, E75A
VL: B1 VL with R53K, S72T, S79Q
Stimulation Index, FXa generation assay, 1600 nM OA antibody [1]: 7690 fold

B13: one-armed (OA) mAb11-1499 (antibody, V domains shown)
VH: B1 VH with K54R, D62K, E75A
VL: B1 VL with R53K, S72T, S79Q
Stimulation Index, FXa generation assay, 1600 nM OA antibody [1]: 9010 fold

B14: one-armed (OA) mAb11-1501 (antibody, V domains shown)
VH: B1 VH with H30D, K54R, D62K, E75A
VL: B1 VL with R53K, S72T, S79Q
Stimulation Index, FXa generation assay, 1600 nM OA antibody [1]: 10300 fold

B15: one-armed (OA) mAb11-1502 (antibody, V domains shown)
VH: B1 VH with H30D, K54R, D62K, E75A
VL: B1 VL with F46L, R53K, S72T, S79Q
Stimulation Index, FXa generation assay, 1600 nM OA antibody [1]: 5850 fold

B16: bimAb05-0745 (bispecific antibody, V domains shown)
VH 1: B1 VH
VL 1: B1 VL with S79Q
VH 2: EVQLVQSGAEVKKPGESLRISCKGSGYSFSTSWIVWVRQMPGKGLEWMGMIDPSDSFTSYSPSFQGHVTISADKSISTAYLQWSSLKASDTAMYYCARLHYYNSEEFDVWGQGTLVTVSS
VL 2: EIVLTQSPGTLSLSPGERATLSCRASQSVSSSYLAWYQQKPGQAPRLLIYGQSSRTRGIPDRFSGSGSGTDFTLTISRLEPEDFAVYYCQQFGDSQLFTFGQGTKLEIK
Maximum stimulation (fold), FXa generation assay with bispecific antibody; maximum at 7980 nM [2]: 21100 fold

B17: bimAb05-3761 (bispecific antibody, V domains shown)
VH 1: B1 VH with R19K, H30D, E75A, M83L, V97A
VL 1: B1 VL with V15A, R18E, F46L, R53K, T58V, S77D, S79Q
VH 2: B16 VH 2
VL 2: B16 VL 2
Maximum stimulation (fold), FXa generation assay with bispecific antibody; maximum at 2690 nM [2]: 16300 fold

B18: bimAb05-3769 (bispecific antibody, V domains shown)
VH 1: B1 VH with K54R, D62K, E75A
VL 1: B1 VL with R53K, D55E, S79Q
VH 2: B16 VH 2
VL 2: B16 VL 2
Maximum stimulation (fold), FXa generation assay with bispecific antibody; maximum at 8170 nM [2]: 27400 fold

B19: one-armed (OA) mAb01-9933 (antibody, V domains shown)
VH: B1 VH with R19K, H30D, E75A, M83L, V97A
VL: B1 VL with V15A, R18E, F46L, R53K, T58V, S77D, S79Q
Stimulation Index, FXa generation assay, 3600 nM OA antibody [1]: 6440 fold

B20: bimAb05-0746 (bispecific antibody, V domains shown)
VH 1: B1 VH
VL 1: B1 VL with F46L, D55E, S79Q
VH 2: B16 VH 2
VL 2: B16 VL 2
Maximum stimulation (fold), FXa generation assay with bispecific antibody; maximum at 3717 nM [2]: 14600 fold

B21: bimAb05-2112 (bispecific antibody, V domains shown)
VH 1: B1 VH
VL 1: B1 VL with S79Q
VH 2: B16 VH 2 with V35S, F57Y, L115M
VL 2: B16 VL 2 with F92Y
Maximum stimulation (fold), FXa generation assay with bispecific antibody; maximum at 7820 nM [2]: 30400 fold

B22: bimAb05-2113 (bispecific antibody, V domains shown)
VH 1: B1 VH with R19K, H30D, E75A, M83L, V97A
VL 1: B1 VL with V15A, R18E, F46L, R53K, T58V, S77D, S79Q
VH 2: B16 VH 2 with V35S, F57Y, L115M
VL 2: B16 VL 2 with F92Y
Maximum stimulation (fold), FXa generation assay with bispecific antibody; maximum at 7600 nM [2]: 26300 fold

B23: bimAb05-2114 (bispecific antibody, V domains shown)
VH 1: B1 VH with K54R, D62K, E75A
VL 1: B1 VL with R53K, D55E, S79Q
VH 2: B16 VH 2 with V35S, F57Y, L115M
VL 2: B16 VL 2 with F92Y
Maximum stimulation (fold), FXa generation assay with bispecific antibody; maximum at 7580 nM [2]: 35200 fold

B24: bimAb05-2115 (bispecific antibody, V domains shown)
VH 1: B1 VH
VL 1: B1 VL with F46L, D55E, S79Q
VH 2: B16 VH 2 with V35S, F57Y, L115M
VL 2: B16 VL 2 with F92Y
Maximum stimulation (fold), FXa generation assay with bispecific antibody; maximum at 7790 nM [2]: 14900 fold

B25: bimAb05-3755 (bispecific antibody, V domains shown)
VH 1: B1 VH
VL 1: B1 VL with S79Q
VH 2: B16 VH 2 with S30T, N103H
VL 2: B16 VL 2 with Q52A, T56A, D94S, Q96R
Maximum stimulation (fold), FXa generation assay with bispecific antibody; maximum at 156 nM [2]: 7570 fold

B26: one-armed (OA) mAb01-9978 (antibody, V domains shown)
VH: B1 VH
VL: B1 VL with F46L, D55E, S79Q
Stimulation Index, FXa generation assay, 3600 nM OA antibody [1]: 3670 fold

B27: 224F3 (mAb01-1582) (antibody, V domains shown)
VH: QVQMQQSGAELVKPGASVKLSCKASGYTFTSQDINWVRQRPEQGLEWIGWIFPGDGSTKYNEKLKGKATLTTDKSSSTAFMQLSRLTSEDSAVYFCARSAYYRYDGSYYYAMDYWGQGTSVTVSS
VL: QIVLTQSPAIMSASLGEEITLTCSASSSVSYMLWYQQKSGTSPKLLIYTTSNLASGVPSRFSGTGSGTFYSLTISSVEAEDAADYYCHQWSSYPRTFGGGTKLEIKR
interferometry response value [3]: 1.69 | interferometry response value [4]: 0.11 | interferometry response value [5]: 2.11 | interferometry response value [6]: 1.6
